Reference: publication PMC11229316, “Insights into the molecular mechanism of ParABS system in chromosome partition by HpParA and HpParB” (Nucleic Acids Research, 2024)
Changes are numbered by the printed parent chain. No end group written: not given here.

How the values were obtained:
[1] = biological target: T1, HpParB (HpSpo0J) (Helicobacter pylori, UniProt O25758 1-290); test: fluorescence polarization; 1 mM CTP, 5 mM Mg2+; FP: 20 mM Tris-HCl pH 8.0, 175 mM NaCl, 5 mM MgCl2, 10% glycerol, 1 mM ATP or CTP, 5 nM DNA, room temperature; EMSA: 20 mM Tris-HCl pH 8.0, 50 mM NaCl, 11 mM imidazole, 5 mM MgCl2, 10% glycerol, +/- 2 mM CTP, 37 C, gel at 4 C; conditions: protein: recombinant, tags: His (Ni-NTA purified), chain copies: 2, blunt
T1 sequence: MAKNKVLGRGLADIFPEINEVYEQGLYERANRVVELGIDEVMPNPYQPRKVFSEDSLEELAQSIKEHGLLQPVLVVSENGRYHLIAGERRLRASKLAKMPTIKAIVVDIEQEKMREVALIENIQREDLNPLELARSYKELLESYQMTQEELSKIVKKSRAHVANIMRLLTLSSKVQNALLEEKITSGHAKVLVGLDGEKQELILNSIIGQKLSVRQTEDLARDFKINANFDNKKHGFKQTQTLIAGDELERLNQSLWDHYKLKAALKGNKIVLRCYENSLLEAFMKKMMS

[2] = biological target: T1, HpParB (HpSpo0J); test: fluorescence polarization; no CTP, 5 mM Mg2+; FP: 20 mM Tris-HCl pH 8.0, 175 mM NaCl, 5 mM MgCl2, 10% glycerol, 1 mM ATP or CTP, 5 nM DNA, room temperature; EMSA: 20 mM Tris-HCl pH 8.0, 50 mM NaCl, 11 mM imidazole, 5 mM MgCl2, 10% glycerol, +/- 2 mM CTP, 37 C, gel at 4 C; conditions: protein: recombinant; tags: His (Ni-NTA purified); chain copies: 2; label: 5' Cy3 (FP dye assignment inferred from EMSA); blunt
[3] = biological target: T2, Ct-HpParB (Helicobacter pylori, UniProt O25758 1-240); test: EMSA; no CTP; FP: 20 mM Tris-HCl pH 8.0, 175 mM NaCl, 5 mM MgCl2, 10% glycerol, 1 mM ATP or CTP, 5 nM DNA, room temperature; EMSA: 20 mM Tris-HCl pH 8.0, 50 mM NaCl, 11 mM imidazole, 5 mM MgCl2, 10% glycerol, +/- 2 mM CTP, 37 C, gel at 4 C; conditions: protein: recombinant; chain copies: 2; label: none (GelRed stain); blunt
T2 sequence: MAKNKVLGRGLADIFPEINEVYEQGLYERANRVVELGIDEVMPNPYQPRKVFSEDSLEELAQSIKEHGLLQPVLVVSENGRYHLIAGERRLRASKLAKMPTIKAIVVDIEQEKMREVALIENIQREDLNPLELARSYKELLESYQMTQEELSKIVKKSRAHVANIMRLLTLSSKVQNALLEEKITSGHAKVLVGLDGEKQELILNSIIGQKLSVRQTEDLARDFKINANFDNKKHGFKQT

[4] = biological target: HpParAD41A (Helicobacter pylori, UniProt O25759 1-264, D41A); test: fluorescence polarization; 1 mM ATP, 5 mM Mg2+; FP: 20 mM Tris-HCl pH 8.0, 175 mM NaCl, 5 mM MgCl2, 10% glycerol, 1 mM ATP or CTP, 5 nM DNA, room temperature; EMSA: 20 mM Tris-HCl pH 8.0, 50 mM NaCl, 11 mM imidazole, 5 mM MgCl2, 10% glycerol, +/- 2 mM CTP, 37 C, gel at 4 C; conditions: protein: recombinant; tags: His (Ni-NTA purified); label: 5' Cy5 in EMSA; FP label Cy3 or Cy5 not specified per DNA; blunt
[5] = biological target: T3, HpParA (HpSoj) (Helicobacter pylori, UniProt O25759 1-264); test: as above; conditions: protein: recombinant; tags: His (Ni-NTA purified); label: 5' Cy5 in EMSA; FP label Cy3 or Cy5 not specified per DNA; blunt
T3 sequence: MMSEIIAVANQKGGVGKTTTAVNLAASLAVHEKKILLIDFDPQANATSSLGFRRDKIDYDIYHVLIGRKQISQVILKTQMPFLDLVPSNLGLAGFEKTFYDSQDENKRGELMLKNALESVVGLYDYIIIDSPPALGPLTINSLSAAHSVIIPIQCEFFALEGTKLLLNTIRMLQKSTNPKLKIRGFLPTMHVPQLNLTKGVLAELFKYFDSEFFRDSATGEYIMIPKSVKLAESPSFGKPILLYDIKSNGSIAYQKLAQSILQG

[6] = biological target: T4, HpParA (HpSoj);HpParB (HpSpo0J) (Helicobacter pylori;Helicobacter pylori, UniProt O25759;O25758 1-264;1-290, |); test: EMSA; no CTP; NAC1 with Cy3-parS (N3) also in complex; FP: 20 mM Tris-HCl pH 8.0, 175 mM NaCl, 5 mM MgCl2, 10% glycerol, 1 mM ATP or CTP, 5 nM DNA, room temperature; EMSA: 20 mM Tris-HCl pH 8.0, 50 mM NaCl, 11 mM imidazole, 5 mM MgCl2, 10% glycerol, +/- 2 mM CTP, 37 C, gel at 4 C; conditions: protein: recombinant;recombinant; tags: His (Ni-NTA purified); label: 5' Cy5 in EMSA; FP label Cy3 or Cy5 not specified per DNA; blunt
T4 sequence 1: T3 sequence
T4 sequence 2: T1 sequence

[7] = biological target: HpParAD41A;HpParB (HpSpo0J) (Helicobacter pylori;Helicobacter pylori, UniProt O25759;O25758 1-264;1-290, D41A|); test: EMSA; no CTP; NAC3 with Cy3-parS (N3) also in complex; FP: 20 mM Tris-HCl pH 8.0, 175 mM NaCl, 5 mM MgCl2, 10% glycerol, 1 mM ATP or CTP, 5 nM DNA, room temperature; EMSA: 20 mM Tris-HCl pH 8.0, 50 mM NaCl, 11 mM imidazole, 5 mM MgCl2, 10% glycerol, +/- 2 mM CTP, 37 C, gel at 4 C; conditions: protein: recombinant;recombinant; tags: His (Ni-NTA purified); label: 5' Cy5 in EMSA; FP label Cy3 or Cy5 not specified per DNA; blunt
[8] = biological target: T5, HpParAD41A, ATP hydrolysis-deficient mutant of Helicobacter pylori ParA (Helicobacter pylori, UniProt O25759, D41A); test: MST; 5-FAM-Ahx-labeled peptide (200 nM) mixed 1:1 with 16 serial dilutions of unlabeled HpParA or HpParAD41A (300 μM); 20 mM Tris-HCl pH 8.0, 5% glycerol, 200 mM NaCl, 50 mM imidazole, 5 mM MgCl2, 0.05% Tween20; 25°C; the results speak of ParA-DNA complexes; conditions: both partners purified
T5 construct: also called HpSojD41A; source: recombinant, grown in Luria-Bertani medium, induced with IPTG, purified as HpParA (Ni-NTA, SEC)
T5 sequence: T3 sequence with D41A

B1: Cy3-parS 24-bp (dsDNA)
DNA 1: AGGGTGTTCCACGTGAAACAGGGA
DNA 2: TCCCTGTTTCACGTGGAACACCCT
**Q.** How did the Kd ([1]; label: 5' Cy3 (FP dye assignment inferred from EMSA)) turn out when B1 was run?
**A.** 232 ± 42 nM

**Q.** And the Kd [2]?
**A.** 63.4 ± 5.6 nM

B2: nsDNA 24-bp (dsDNA)
DNA 1: TCCTATGAATTGCTATGGCAAGCG
DNA 2: CGCTTGCCATAGCAATTCATAGGA
**Q.** Does B2 bind [3]?
**A.** no binding

B3: Cy5/Cy3-labeled nsDNA 24-bp (dsDNA)
DNA 1: TCCTATGAATTGCTATGGCAAGCG
DNA 2: CGCTTGCCATAGCAATTCATAGGA
**Q.** How did the Kd ([1]; label: 5' Cy5 in EMSA, FP label Cy3 or Cy5 not specified per DNA) turn out when B3 was run?
**A.** 145 ± 28.8 nM

**Q.** What about the Kd [4] of the same binder?
**A.** 149 ± 18.1 nM

**Q.** And the Kd [5]?
**A.** 117 ± 15.2 nM

**Q.** Does B3 bind [6]?
**A.** binds

**Q.** Does B3 bind [7]?
**A.** binds

B4: HpParBN10, N-terminal peptide of HpParB (residues 1-10) (peptide)
peptide: MAKNKVLGRG
modifications: not fully specified (N-terminus); also: labeled with 5-FAM-Ahx fluorophore, site not given here
notes: residues 1-10 of Helicobacter pylori Spo0J/ParB (HP1138); The methods describe only the 5-FAM-Ahx-labelled peptide; also called HpSpo0JN10; source: synthetic peptide, bought: MDBio, inc
**Q.** Which Kd [8] does the source give for B4 here?
**A.** 5300 ± 1100 nM
